Positions count from the first letter of the chain named.
T1: Alexa647-labeled RhoGDI1 (wt) (bovine, UniProt P19803 1-204, Alexa647 acceptor (site not stated))
T1 construct: also called wildtype GDI; wt RhoGDI
T1 sequence (looked up): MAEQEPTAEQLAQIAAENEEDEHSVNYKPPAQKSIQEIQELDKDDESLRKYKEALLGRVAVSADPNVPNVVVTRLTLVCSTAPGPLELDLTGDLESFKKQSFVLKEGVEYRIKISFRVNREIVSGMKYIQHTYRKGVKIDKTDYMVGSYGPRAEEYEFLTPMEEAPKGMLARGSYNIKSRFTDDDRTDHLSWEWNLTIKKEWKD

B1: full-length RhoGDI1 (residues 1 to 204), bovine (natural protein, UniProt P19803 1-204, looked up)
chain: T1 sequence (looked up)
modifications: triply labeled (2H, 13C, 15N) in the NMR samples
B2: Alexa647-labeled RhoGDI1 L56G (natural protein, bovine, UniProt P19803 1-204, looked up)
chain: T1 sequence (looked up) with L56G
modifications: Alexa647 acceptor (site not stated)
B3: Cy3-labeled, prenylated Cdc42 (natural protein)
chain: not shown
modifications: prenylated (residue not stated); Cy3 donor (site not stated)
notes: Cdc42, Rho family small GTPase

Experiments:
[1] = target: Cdc42, homogeneously geranylgeranylated in vitro (UniProt P60953 1-191, geranylgeranylated in vitro (residue not stated)); test: cell-based or functional assay
[2] = target: T1, Alexa647-labeled RhoGDI1 (wt); test: not stated; association rate constant determined independently for wildtype GDI (Figure S17); conditions: both partners purified
[3] = target: T1, Alexa647-labeled RhoGDI1 (wt); test: FRET or BRET; dissociation assay: 80 nM dual-labeled complex (Alexa647 on RhoGDI1, Cy3 on Cdc42) mixed with excess (5 μM) unlabeled GDI; mono-exponential fits; KD calculated from the measured dissociation rate constant and the association rate constant measured for wt (assumed for the mutants); conditions: both partners purified
[4] = target: B2; test: as above; conditions: both partners purified

Cdc42, homogeneously geranylgeranylated in vitro, sequence (P60953 whole entry): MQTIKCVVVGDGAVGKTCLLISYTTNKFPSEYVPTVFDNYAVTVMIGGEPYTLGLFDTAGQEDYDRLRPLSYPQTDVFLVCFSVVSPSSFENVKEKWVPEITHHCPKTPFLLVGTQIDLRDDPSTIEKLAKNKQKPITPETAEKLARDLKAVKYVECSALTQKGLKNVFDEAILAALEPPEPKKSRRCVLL

Binder: B1
- inhibition of EDTA-induced Mant-GDP dissociation from prenylated Cdc42 with saturating (5 μM) RhoGDI, against free Cdc42 [1]: 83 fold

Binder: B2
- acceleration of Mant-GDP dissociation from prenylated Cdc42 with 5 μM RhoGDI L56G, against wt RhoGDI [1]: 5 fold

Binder: B3
- kon [2]: 5e+06 M⁻¹ s⁻¹
- Kd [3]: 0.09 nM
- koff [3]: 0.0004 s⁻¹
- Kd [4]: 4 nM
- koff [4]: 0.2 s⁻¹

— article PMC7616425, “Transient Structural Properties of the Rho GDP-Dissociation Inhibitor” (Angewandte Chemie (International ed. in English), 2024)
